Source: PMC5637921, “An engineered photoswitchable mammalian pyruvate kinase” (The Febs Journal, 2017)

Biological target: the molecule itself
Test: SEC; preparative SEC after Ni affinity; HiLoad 16/600 Superdex 200 pg, 0.5 mL/min, 50 mM Tris/HCl pH 7.5, 10 mM MgCl2, 200 mM NaCl, 150 mM KCl, 5% glycerol, 0.5 mM TCEP

B1: mPKM2 internal LOV2 fusion at position D24 (PiL[D24]) (enzyme)
chain: not shown
notes: mouse pyruvate kinase M2 isoform (mPKM2), residues 1-24, amplified from pLHCX-flag-mPKM2; N-terminal part up to Asp24; Avena sativa phototropin 1 (NPH1-1) LOV2 domain, residues 404-540, amplified from plasmid pDS257 (Mid2(SS/TM)-GFP-LOVpep); G528A and N538E of the template were backmutated to wild-type LOV2; numbers count on phototropin 1 (NPH1-1, GenBank AAC05083.1); mouse pyruvate kinase M2 …
  stoichiometry N: 4
